This is an account of results in article PMC11656743.

Values joined by “and” are separate entries in the source; they are usually repeats but may differ in a detail not shown here. Identical values can stand only once. Some results are limits rather than exact numbers.

The target of assay [1] is MoaB2 with C-terminal His-tag, for crystallography (strain LK2615) (M. smegmatis). Put plainly: crystal structure; X-ray, 2.53 Å; crystals from 0.2 M calcium chloride, 14% PEG 400, 0.1 M sodium-HEPES pH 7.5.
Assay [2] has the same target. Description: dynamic light scattering; 5 mg/mL MoaB2 in 20 mM Tris-HCl pH 8.0, 50 mM NaCl, 3 mM NaN3, 25°C.
Assay [3] deals with σ^A, recombinant, tag cleaved (strain LK2832) (M. smegmatis) (UniProt A0QW02). Put plainly: AUC; multi-signal sedimentation velocity (absorbance 280 nm and interference) at σ^A:MoaB2 molar ratio 1:0.3.
Assay [4] concerns the target MoaB2, recombinant, tag cleaved (strain LK2936) (M. smegmatis) (UniProt A0R3I5). Description: SEC; Superdex 200 Increase 10/300, 25 mM Tris-HCl pH 7.5, 50 mM NaCl, 1 mM DTT, 15°C; fractions on SDS-PAGE.
Assay [5] concerns the target σ^A, recombinant, tag cleaved (strain LK2832) (M. smegmatis) (UniProt A0QW02). Description: AUC; sedimentation velocity, 20°C, 50 mM HEPES pH 7.5, 100 mM NaCl, 0.5 mM TCEP, 3 mM NaN3; σ^A 19.4 µM, MoaB2 77.6 µM, σ^A:MoaB2 mixtures 1:0.1 to 1:4.
Assay [6] deals with MoaB2, recombinant, tag cleaved (strain LK2936) (M. smegmatis) (UniProt A0R3I5). The assay is described as above.

Turning to “MoaB2 with C-terminal His-tag, for crystallography (strain LK2615) (natural protein)”, the stoichiometry N in assay [1] and in assay [2] was 6 throughout.
For the substance “MoaB2, recombinant, tag cleaved (strain LK2936) (from UniProt A0R3I5 1-178) (natural protein)”, the stoichiometry N is 1 σ^A:MoaB2 in assay [3]; 6 in assay [4]; 1 σ^A:MoaB2 in assay [5]; 6 and 3 in assay [6]. In assay [5], the Kd is less than 1 µM.
